Measured values from the nanobody polyreactivity screen of Harvey et al. (2022).

assay: yeast display, Sf9 membrane polyspecificity reagent, FACS + sequencing; frameworks hold sequencing errors
In short: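 Using colony PCR, genes from sorted yeast display clones were amplified, then sequenced on MiSeq at 2 × 250 and filtered by CDR length. The clones had been stained with 10% biotinylated, detergent-solubilized Sf9 membrane reagent for 1 hour at 4 °C and sorted by FACS into low and high (top ~1%) gates on anti-HA and streptavidin fluorescence. Polyreactivity labels come from the gate of origin.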

Sequence | polyreactivity (PSR sort gate)
QVQLVESGGGLVQAGGSLRFSCAASGSTFQYYAMGWYRQAPGKEREFVAAIRSSGGTTYYADSVKGRFTLSRDNAKNTVYLQMNSLKPEDTAVYYCAATTKYNGRRSYFKFDYWGQGTQVTVSS | high polyreactivity
QVQLVESGGGLVQAGGSLRLSCAASGLISYAYAMGWYRQAPGKERELVAAIRSSGSTYYADSVKGRFTISLDNAKNTVYLQMNSLKPEDTAVYYCAKRNPIKYYGGGYWGQGTQVTVSS | high polyreactivity
QVQLVESGGGLVQAGGSLRLSCAASGSTFDSNDMGWSRQAPGKERELVAAITWSGGSTYYADSVKGRFTISRDNAKNTVYLQMNSLKPEDTAVYYCAATSGRAFKYDYWGQGTQVTVSS | high polyreactivity
QVQLVESGGGLVQAGGSLRLSCAASGFTFTPYAMGWYRQAPGKERELVATISWSGGSTYADSVKGRFTISRDNAKNTVYLQMNSLKPEDTAVYYCAADVYGVHAPQSDYWTKYDYWGQGTQVTVSS | low polyreactivity
QVQLVESGGGLVQAGGSLRLSCAASGFNFGSNAMGWYRQAPGKERELVAAITYSGASTYYADSVKGRFTISRDNAKNTVYLQMNSLKPEDTAVYSCAADLTSYYGGDYWGQGTQVTVSS | low polyreactivity
QVQLVESGGGLVQAGGSLRLSCAASGRIFAVYAMGWYRQAAGKERELVAAITSTGSTNYADSVKGRFTISRDNAKNTVYLQMNSLKPEDTAVYYCAKRRHSSWLRYNYWGQGTQVTVSS | low polyreactivity
QVQLVESGGGLVQAGGSLRLSCAASGFIFRGYAMGWYRQAPGKERELVAAITYSTGNTYYADSVKGRFTISRDNAKNTVYLQMNSLKPEDTAVYYCNKVVRKFIGGYVYYSGGYWGQGTQVTVSS | low polyreactivity
QVQLVESGGGLVQAGGGHRLSCAASGRTFTYNAMGWYRQAPGKERELVAAITSGGSTNYADSVKGRYTISRDNAKNTVYLQMNSLKPEDTAVYYCAADGDDYTTTEFDYWGQGTQVTVSS | low polyreactivity
QVQLVESGGGLVQAGGSLRLSCAASGSTFSGYAMGWSRQAPGKERELVASITSSGGSTYYADSVKGRFTISRDNAKNTVYLQMNSLKPEDTAVYYCAAAKSAMWGQGTQVTVSS | low polyreactivity
QVQLVESGGGLVQAGGSLRLSCAASGLIFVGYAMGWYRQAPGKERELVAAITSGGSTKYADSVKGRFTISRDNAKNTVYLQMNSLKAEDTAVYYCAASGWRNWWSARNYYWGQGTQVTVSS | low polyreactivity
QVQLVASGGGLVQAGGSLRLSCAASGSTFGSNAMGWYRQAPGKERELVAPINSGDSTSYADSVKGRFTISRDNAKNTVYLQMNSLKPEDTAVYYCATRYYTFVWRHDYWGQGTQVTVSS | low polyreactivity
QVQLVESGGGLVQAGGSLRLSCAASGSIIGTNVMGWYRQAPGKERELVASISYRDGTTYYADSVKGRFTISRDNAKNTVYLQMNSLKPEDTAVYYCAVANYYSYYWGQGTQVTVSS | low polyreactivity
QVQLVESGGGLVQAGGSLRLSCAASGRIFYRYVMGWYRQAPGKERELVAAITSSGGSTYYADSVKGRFTISRDNAKNTVYLQMNSLNPEDTAVYYCAADRYTRYRYNYWGQGTQVTVSS | high polyreactivity
QVQLVESGGGLVQAGGRLRLSCAASGITFLNYAMGWYRPAPRKERELVAAISWSGGRTYYADSVKGRFTISRDNAKNTVFLQMNSLKPEDNAVYYCAADRGVNSYGYWGQGTQVTVSS | high polyreactivity
QVQLVESGGGLVQAGGSLRLSCAASGITFSVNTMGWYRQAPGKERELVAAITSAGGTYYADSVKGRFTISRDNAKNTVYLQMNSQKPEDTAVYYCAAANFRSYLSQTGPRAYYYWGQGTQVTVSS | low polyreactivity
QVQLVESGGGLVQAGGSLRLSCAASGFIFPYYAMGWYRQAPGKERELVAAISQSGGSTYYADSVKGRFTISRDNAKNTVYLQMNSLKPEDTAVYYCAKYIPSYHDGDYWGQGTQVTVSS | low polyreactivity
QVQLVESGGGLVQAGGSLRLSCADSGFTFVEYAMGWYRQAPGKERELVAAITRSGTRTYYADSVKGRFTISRDNAKNTVYLQMNSLKPEDTAVYYCNKPYSKTNHYDSWGQGTQVTVSS | high polyreactivity
QVQLVESGGGLVQAGGSLRLSCAASGYIFGVYAMGWYRQAPGKERELVAAISIGGSTYYADSVKGPFTISRDNAKNTVYLQMNSLKPEDTAVYYCAARGWIRKTSSAYGYWGQGTQVTVSS | high polyreactivity
QVQLVESGGGIVQAGGSLRLSCAASGRIFPYYDMGWYRQAPGKERELVAAITSSGSTFYADSVKGRFTISRDNAKNTVYLQMNSLKPEDTAVYYCNTRDIRVRPYDYWGQGTQVTVSS | low polyreactivity
QVQLVESGGGVVQSGGSLRLSCAASGRTFNHYAMGWYRQAPGKERELVAGITISGGSTYYADSVKGRFTISRDNAKNTVYLQMNSLKPEDTAVYYCNAVYDYYRQSKWTMDYWGQGTQVTVSS | low polyreactivity
QVHLVESGGGLVQAGGSLRLSCPASGLTFYRYAMGLYRPAPGKERELVAAISSGGNTYYADSVKGRFTISRDNAKNTVYLQMNSMKPEDTAVYYCAAESYALRGHPGYYYWGQGSQVTVSS | high polyreactivity
QVQLVESGGGLVQAGGSLSLSCAASGRLFARNTMGWYRQAPGKEREFVAAIDRRGGSTYYADSVKGRFTISRDNAKNTVYLQMNSLKPEDTAVYYCNKDTRRSGRMDSWGQGTEVTVSS | low polyreactivity

Sequence | polyreactivity (PSR sort gate)
QVQLVESGGGLVQAGGSLRLSCAAYGSTFWVYAMVWYRQAPGKERELVAAIDYSGGSTYYADSVKGRFTISRDNAKNNVYLQMNSLKPEDTAVYYCAAGEGQYWLWDGEGEYDYWGQGTQVTVSS | low polyreactivity
QVQLVESGGGLVQAGGSLRLSCAASGSTFQIYAMGWYRQPPGKDRELVAANTSSSSTNYADSVKGRFTISRENAKNTVYLQMNSLKPEDTAVYYCAAAVSWRSNWYDYWGQGTQVTVSS | low polyreactivity
QVQLVESVGGLVQAGGSLRLSCAASGYIFGYNAMGWYRQAPGKERELVAAISRSAGRTYYADSVKGRFTISRDNAKNTVYLQMNSLKPEDTAVYYCAAQSYWLGYEYWGQGTQVTVSS | high polyreactivity
QVQLVESGGGLVQAGGSLRLSCAASGSTFPVYAMGWYRQAPGKERELVAAITSGGSTNYADSVKGRFTISRDNAKNTVYLQMNSLKPEDTAVYYCNAEDIYRKRDFYHRLYDYWGQGTQVTVSS | low polyreactivity
QVQLVESGGGLVQAGGSLRLSCAASGLTFYYNAMGWYRQAPGKERELVAVIRGSGGSTYYADSVKGRFTISRDNAKNTVYLQMNSLKPEDTAVYYCAARVAASRRYYYWGQGTQVTVSS | high polyreactivity
QFQLVESGGGLVQAGGSLRLSCAASGRTFVPYVMGWYRQAPGKERELVASITSGGSTYYADSVKGRFTISRDNAKNTVYLQMNSLNPEDTAVYYCATRQSAERWGYYYWGQGTQVTVSS | low polyreactivity
QLQLVESGGGLDQAGGSLRLSCAASGGTFFKNAMGWYRQAPGNERELVAVIDTISTSTYYAESVKGRFTISRDNAKNTVYLQMNSLKPEDTAVYYCAAEYGPGLTEGLYYYWGQGTQVTVSS | high polyreactivity
QVQLVESGGGLVQAGGSLRLSCAASGFIFHSYDMGWYRPAPRKERELVASISRGGGSTYYADSVKGRFTISRDNAMNTVYLQMNSLKPEDTAVYDCSARVYSLGYGGDYWGQGTQVTVSS | high polyreactivity
QVQLVESGGGLVQAGGSLRLSCAASGRIFSVNAMGWYRQAPGKERELVAAITPGASTNYADSVKGRFTISRDNAKNTVYLQMNSLKPEDTAVYYCAAGWVSFEDWVLGSYYEYDYWGQGTQVTVSS | low polyreactivity
QFQLVESGGGLVQAGGSLRLSCAASGRIFVYYMGWYRQAPRKERELVAALSFGGGSTYYADSVKGRFTISRDNAKNTVYLQMNSLKPEDNAVYYCNADGDDLDWNYYLVQYDYWGQGTQVTVSS | low polyreactivity
QFQLVESGGGLVQAGGSLRLSCAASGRTFYVNAMGWYRPSPGKERELVAGISFSDGSTYYADSVKGRFTISRDNAKNTVYLQMNSLKPEDTAVYYCATVGAFDIYYGYGYWGQGTQVTVSS | low polyreactivity
QVQHVESGGGLGQARRSLRLSCAASGTIINANAMGWDRQAPGKERELVASISGGAGSTYYADSVKGRFTISRDNAKNTVYLQMNSLKPEDTAVYYCAADRPYRYDYWGQGTQVTVSS | low polyreactivity
QVQLVESGGGLVQAGGSLRLSCAASGFTFEYNDMGWYRQAPGIERELVDSISYDSDSTYYADSVKGRFTISRDNAKNTVYLQMNRLKPEDTAVYYCNAGSSYHEYGYWGQGTQVTVSS | high polyreactivity
QVQLVESGGGLVQAGGSLRLSCAASGSTFDSYAMGWYRQAPGKERELVAAISYNGSSTYYADSVKGRFTISRDNAKNTVYLQMNSLKPEDTAVYYCAAAPGFSAGHHDYWGQGTQVTVSS | low polyreactivity
QVQLVESGGGLVQAGGSHRLSCAASGSIFRGYAMGWNRHAPRKERELVASITWSSGSTYYADSVKGRFTISRDNAKITVYLQMNSLKPEDTAVYDCAADVEYWSYEFNYWGQGTQVTVSS | low polyreactivity
QVQLVESGGGLVQAGGSLRLSCAASGRILDYYAMGWYRQAPGKERELVAAIRRRGVITYADSVKGRFTISRDNAKNTVYLQMNSLKPEDTAVYYCAAGGYEYGYWGQGTQVTVSS | low polyreactivity
QVQLVESGGGLVQAGGSLRLSCAASGFTITKYAMGWYRQAPGKERALVAAISRSAGSTYYADSVKGRFTISRDNAKHTVYLQMNSLKPEDTAVYYCNAYPKGRYAAAFPGMDYWGQGTQVTVSS | high polyreactivity
QVQLVESWGGLVQAGGSLRLSCAASGFTFRAYAMGWYRQAPGKERELVAAISTGGGSTYYADSVKGRFTISRDNAKNTVYLQMKSLKPEDTAVYYCNALPQRRYYYWGQGTQVTVSS | high polyreactivity
QVQLVESGGGLVQAGGSLRLSCAASGSIFSGYDMGWYRQAPGNERELVAVISWSTTSTYYADSVKGRFTISRDNAKNTVYLQMNSLKPEDTAVYYCNAEAYQYWEFDYWGQGSQVTVSS | low polyreactivity
QVQLVESGGGLVQAGGSLRLTCAASGRTFTTYAMGWYRQAPGKERELFAAISGSGGSTYYADSVKGRFTISRDNAKNTVYLQMNSLKPEGTAVYYCATAYYYHGGYYYPYDDYWGQGTQVTVSS | low polyreactivity
QVQLVESGGGLVQAGGSLRLSCAASGRIFGYYAMGWYRQAPGKERELVAAITSGGRTYYADSVKGRFTISRDNAKNTVFLQMNSLKPEDTAVNYCAAVRALRKVRDYYYWGQGTQVTVSS | high polyreactivity
